Experimental data published in patent US20230257435A1, “Wound Healing Composition and Uses Thereof” (AGENCY FOR SCIENCE, TECHNOLOGY AND RESEARCH, priority 2020, published 2023).

Key:
[1] = test system: primary mouse keratinocytes; test: BrDu proliferation assay of mouse keratinocytes; assay type: cell-based; conditions: increasing concentrations of sAgrin
Procedure: (a) The protein sequence of the C-terminal Agrin fragment used as bio-additive. Gel-filtration profile of purified sAgrin. The recombinant sAgrin were tested in a Coomassie stained gel and by Western blot using an Agrin antibody. (b) BrDu proliferation assay of mouse keratinocytes cells treated with increasing concentrations of sAgrin for the indicated days (n=3 experiments, Students ‘t’ test, **p=0.001 and *p=0.01, respectively). (c) HaCaT/mouse keratinocytes cells treated with increasing doses of sAgrin were subjected to scratch wound assay. Representative bright-field images are shown at indicated times post-wounding. Scale bar: 20 μm. The resulting uncovered wound area presented as mean+/−s.d. was quantified using ImageJ (n=3, Students ‘t’ test, *p<0.01). (d) Untreated or sAgrin (10 μg/ml) HaCaT cells were scratched and allowed to migrate for 4 h. […] The relative diameter of wounds presented as mean+/−s.d. was measured on indicated days and represented graphically from one experiment (n=3 mice per group, One-way ANOVA, *p<0.04, **p<0.004, respectively). […] The degree of proliferating cells were quantified using ImageJ (n=3 sections analyzed from two independent mice wounds, Students ‘t’ tests, *p=0.01). […] The quantification of individual types of collagen fibers were done using ImageJ (n=3 sections analyzed per group, Students ‘t’ test, *p=0.01 and 0.05, respectively).

mouse skin explants = test: Mouse skin explant assay (keratinocyte outgrowth); assay type: cell-based
Procedure: Three days old ICR strain mouse pups were sacrificed and the hind skin on either side of the midline in the shoulder region was washed in 70% ethanol and excised using scalpel. The excised skin was washed in 70% ethanol and placed (dermis side down) on the pre-made gel substrates of defined stiffness, either in the absence or presence of 20 μg/ml sAgrin. The explants were allowed to adhere for 2 h before adding the keratinocyte culture medium (DMEM) containing 300 μM Ca^2+ as described previously^31. The keratinocyte outgrowth and the skin tissues regularly imaged under an Axiovert-200 inverted microscope and were subsequently fixed in 4% paraformaldehyde and immunostained for Keratin 17 antibody.
Tissue culture plates were coated with Col-T-gel (Fischer Scientific) of stiffness ranging from 0.8 KPa (soft) to 30 KPa (stiff) as per manufacturer recommendations and allowed to solidify for 40 min at 37° C. inside tissue culture incubators. Some experiments were performed with cells seeded on the poly-hydrogel plates of defined stiffness: 0.2 kPa and 16 kPa soft and hard polyhydrogels, respectively (CytoSoft, Advanced Biomatrix, Inc.,). The determination of stiffness of silicone substrates were done by the manufacturer as per previously published protocols. For certain experiments, indicated amounts of sAgrin was incorporated into the 0.8 KPa collagen gels before gelation process. Upon gelation, trypsinized cells or excised mouse skin explants were plated onto the gels of different stiffness either alone or containing sAgrin. The cells/tissues were incubated under standard culture condition with 500 μl recommended culture medium for the indicated days. The crossbow shaped micropatterns with fibronectin coated islands were generated by microlithography on a 19.5×19.5 mm coverslide from Cytoo, Inc., France. The micropatterns had surface areas of 800μ^2 or 1600μ^2, respectively. Fifty thousand cells after initial siRNA treatment was placed on the micropatterns for 4-6 h before processing them for immunofluorescence. […]

B1: sAgrin: C-terminus recombinant Agrin fragment containing 8 amino acid 'Z8' insert and LG3 domain (SEQ ID NO: 7), His-tagged, expressed in E. coli (protein)
chain: DTLAFDGRTFVEYLNAVTESELANEIPVEKALQSNHFELSLRTEATQGLVLWSGKATERADYVALAIVDGHLQLSYNLGSQPVVLRSTVPVNTNRWLRVVAHREQREGSLQVGNEAPVTGSSPLGATQLDTDGALWLGGLPELPVGPALPKAYGTGFVGCLRDVVVGRHPLHLLEDAVTKPELRPCPTP
modifications: His tag
proliferation (BrDu incorporation) [1]: supported the proliferation of primary mouse keratinocytes
keratinocyte outgrowth on soft substrates (mouse skin explants; soft ECM, 20 μg/ml sAgrin, day 5): significantly enhanced keratinocyte outgrowth
keratinocyte outgrowth of Agrin depleted explants on stiff substrates (mouse skin explants; stiff ECM with 20 μg/ml sAgrin): exhibited higher keratinocyte outgrowth
